B1: PME S156A mutant (protein)
chain: MSALEKSMHLGRLPSRPPLPGSGGSQSGAKMRMGPGRKRDFSPVPWSQYFESMEDVEVENETGKDTFRVYKSGSEGPVLLLLHGGGHSALSWAVFTAAIISRVQCRIVALDLRSHGETKVKNPEDLSAETMAKDVGNVVEAMYGDLPPPIMLIGHAMGGAIAVHTASSNLVPSLLGLCMIDVVEGTAMDALNSMQNFLRGRPKTFKSLENAIEWSVKSGQIRNLESARVSMVGQVKQCEGITSPEGSKSIVEGIIEEEEEDEEGSESISKRKKEDDMETKKDHPYTWRIELAKTEKYWDGWFRGLSNLFLSCPIPKLLLLAGVDRLDKDLTIGQMQGKFQMQVLPQCGHAVHEDAPDKVAEAVATFLIRHRFAEPIGGFQCVFPGC
B2: PME S156C mutant (protein)
chain: MSALEKSMHLGRLPSRPPLPGSGGSQSGAKMRMGPGRKRDFSPVPWSQYFESMEDVEVENETGKDTFRVYKSGSEGPVLLLLHGGGHSALSWAVFTAAIISRVQCRIVALDLRSHGETKVKNPEDLSAETMAKDVGNVVEAMYGDLPPPIMLIGHCMGGAIAVHTASSNLVPSLLGLCMIDVVEGTAMDALNSMQNFLRGRPKTFKSLENAIEWSVKSGQIRNLESARVSMVGQVKQCEGITSPEGSKSIVEGIIEEEEEDEEGSESISKRKKEDDMETKKDHPYTWRIELAKTEKYWDGWFRGLSNLFLSCPIPKLLLLAGVDRLDKDLTIGQMQGKFQMQVLPQCGHAVHEDAPDKVAEAVATFLIRHRFAEPIGGFQCVFPGC
B3: full-length PP2A methyl esterase (PME) (protein)
chain: MSALEKSMHLGRLPSRPPLPGSGGSQSGAKMRMGPGRKRDFSPVPWSQYFESMEDVEVENETGKDTFRVYKSGSEGPVLLLLHGGGHSALSWAVFTAAIISRVQCRIVALDLRSHGETKVKNPEDLSAETMAKDVGNVVEAMYGDLPPPIMLIGHSMGGAIAVHTASSNLVPSLLGLCMIDVVEGTAMDALNSMQNFLRGRPKTFKSLENAIEWSVKSGQIRNLESARVSMVGQVKQCEGITSPEGSKSIVEGIIEEEEEDEEGSESISKRKKEDDMETKKDHPYTWRIELAKTEKYWDGWFRGLSNLFLSCPIPKLLLLAGVDRLDKDLTIGQMQGKFQMQVLPQCGHAVHEDAPDKVAEAVATFLIRHRFAEPIGGFQCVFPGC
B4: PME S156T mutant (protein)
chain: MSALEKSMHLGRLPSRPPLPGSGGSQSGAKMRMGPGRKRDFSPVPWSQYFESMEDVEVENETGKDTFRVYKSGSEGPVLLLLHGGGHSALSWAVFTAAIISRVQCRIVALDLRSHGETKVKNPEDLSAETMAKDVGNVVEAMYGDLPPPIMLIGHTMGGAIAVHTASSNLVPSLLGLCMIDVVEGTAMDALNSMQNFLRGRPKTFKSLENAIEWSVKSGQIRNLESARVSMVGQVKQCEGITSPEGSKSIVEGIIEEEEEDEEGSESISKRKKEDDMETKKDHPYTWRIELAKTEKYWDGWFRGLSNLFLSCPIPKLLLLAGVDRLDKDLTIGQMQGKFQMQVLPQCGHAVHEDAPDKVAEAVATFLIRHRFAEPIGGFQCVFPGC
B5: trypsin-resistant structural core of PME (protein)
chain 1: RDFSPVPWSQYFESMEDVEVENETGKDTFRVYKSGSEGPVLLLLHGGGHSALSWAVFTAAIISRVQCRIVALDLRSHGETKVKNPEDLSAETMAKDVGNVVEAMYGDLPPPIMLIGHSMGGAIAVHTASSNLVPSLLGLCMIDVVEGTAMDALNSMQNFLRGRPKTFKSLENAIEWSVKSGQIRNLESARVSMVGQVKQCEGITSPEGSK
chain 2: KEDDMETKKDHPYTWRIELAKTEKYWDGWFRGLSNLFLSCPIPKLLLLAGVDRLDKDLTIGQMQGKFQMQVLPQCGHAVHEDAPDKVAEAVATFLIRHRFAEPIGGFQCVFPGC

Target: methylated PP2A A-C hetero-dimer (bovine brain, methylated in vitro with PMT and H^3-SAM), Q32PI5
Sequence (Q32PI5 2-589, chain 1 of 2): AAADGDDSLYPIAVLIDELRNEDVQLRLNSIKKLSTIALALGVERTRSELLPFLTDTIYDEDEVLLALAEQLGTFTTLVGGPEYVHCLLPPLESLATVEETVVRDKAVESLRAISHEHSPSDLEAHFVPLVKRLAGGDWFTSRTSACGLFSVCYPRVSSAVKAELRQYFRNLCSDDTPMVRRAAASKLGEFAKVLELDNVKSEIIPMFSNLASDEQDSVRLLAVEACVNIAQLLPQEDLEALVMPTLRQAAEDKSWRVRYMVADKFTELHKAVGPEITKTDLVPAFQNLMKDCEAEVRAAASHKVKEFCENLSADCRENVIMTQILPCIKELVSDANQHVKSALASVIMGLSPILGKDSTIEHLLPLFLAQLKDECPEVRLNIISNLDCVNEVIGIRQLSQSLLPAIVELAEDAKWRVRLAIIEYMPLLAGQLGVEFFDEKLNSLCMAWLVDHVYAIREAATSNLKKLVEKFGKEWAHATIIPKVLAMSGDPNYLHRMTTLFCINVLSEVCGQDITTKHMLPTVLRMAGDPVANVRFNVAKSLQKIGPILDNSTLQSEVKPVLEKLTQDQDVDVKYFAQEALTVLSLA
Sequence (chain, as listed by the source, chain 2 of 2): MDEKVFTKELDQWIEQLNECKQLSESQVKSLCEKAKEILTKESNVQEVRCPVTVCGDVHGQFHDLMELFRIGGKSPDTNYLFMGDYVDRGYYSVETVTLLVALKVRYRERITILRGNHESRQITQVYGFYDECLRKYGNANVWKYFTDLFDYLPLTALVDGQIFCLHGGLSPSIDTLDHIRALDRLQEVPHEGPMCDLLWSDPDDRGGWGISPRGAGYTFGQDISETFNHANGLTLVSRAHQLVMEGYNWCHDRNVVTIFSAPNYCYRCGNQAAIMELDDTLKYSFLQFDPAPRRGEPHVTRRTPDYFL

Protein	enzyme activity (methyl esterase, release of H^3-methanol)	methyl esterase activity (release of H^3-methanol)
B1	mutation of Ser156 to alanine completely abolished the enzyme activity	
B2	mutation to threonine and cysteine retained 10% and 40% of the enzyme activity, respectively	
B3		the PME core exhibits a similar methyl esterase activity to that of the full-length PME
B4	mutation to threonine and cysteine retained 10% and 40% of the enzyme activity, respectively	
B5		the PME core exhibits a similar methyl esterase activity to that of the full-length PME
